Source: patent US20070071744A1 (published 2007)

Molecular target: T1, human glycoprotein VI (GPVI), native, on human platelets (human, UniProt Q9HCN6 21-339)
T1 sequence (looked up): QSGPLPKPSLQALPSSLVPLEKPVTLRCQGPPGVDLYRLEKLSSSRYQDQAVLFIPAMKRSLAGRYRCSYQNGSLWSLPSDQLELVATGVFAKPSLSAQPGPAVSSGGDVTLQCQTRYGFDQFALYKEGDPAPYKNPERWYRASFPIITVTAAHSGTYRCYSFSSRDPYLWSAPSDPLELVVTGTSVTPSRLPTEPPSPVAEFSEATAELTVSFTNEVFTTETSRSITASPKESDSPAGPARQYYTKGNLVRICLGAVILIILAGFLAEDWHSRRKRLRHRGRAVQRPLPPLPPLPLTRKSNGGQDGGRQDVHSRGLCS
Assay: cell-based or functional assay

B1: hGP 5C4 Fab (Fab, V domains shown)
VH: EVKLQESGGGLVQPGRSLKLSCTASGFTFSDYFMSWVRQAPTRGLEWVASISSGGASAYWRDSVKGRFTISRDNAKSALYLQMDSLRSEDTATYFCARGELDFDYWGQGVMVAVSS
VL: ADPNSTLLSASVGDRVTLNCTASQNVYKNLAWYQQKLGEAPRLLLYSANSQTGIPSRFSGSGSGPDFTLTISSLQPEDVASYFCQQYYSGNTFGAGTKLELKR
With B1 the “IC50 of inhibition of collagen-induced (3 µg/ml) human platelet aggregation ex vivo” value was 0.12 mg/L.
